Results taken from doi:10.1101/2022.10.04.510902 (bioRxiv, 2022).

How the values were obtained:
[1] = molecular target: TAMRA-BMAL1 mTAD Δswitch probe (594-F619Y) (mouse); test: fluorescence polarisation
[2] = molecular target: TAMRA-BMAL1 mTAD WT probe (mouse); test: fluorescence polarisation
[3] = molecular target: BMAL1 transactivation domain (TAD), residues 579-626 (mouse); test: ITC
[4] = molecular target: Full-length mouse His-PERIOD2-flag (mouse, UniProt O54943 1-1257); test: pull-down
Chain of Full-length mouse His-PERIOD2-flag (O54943 whole entry): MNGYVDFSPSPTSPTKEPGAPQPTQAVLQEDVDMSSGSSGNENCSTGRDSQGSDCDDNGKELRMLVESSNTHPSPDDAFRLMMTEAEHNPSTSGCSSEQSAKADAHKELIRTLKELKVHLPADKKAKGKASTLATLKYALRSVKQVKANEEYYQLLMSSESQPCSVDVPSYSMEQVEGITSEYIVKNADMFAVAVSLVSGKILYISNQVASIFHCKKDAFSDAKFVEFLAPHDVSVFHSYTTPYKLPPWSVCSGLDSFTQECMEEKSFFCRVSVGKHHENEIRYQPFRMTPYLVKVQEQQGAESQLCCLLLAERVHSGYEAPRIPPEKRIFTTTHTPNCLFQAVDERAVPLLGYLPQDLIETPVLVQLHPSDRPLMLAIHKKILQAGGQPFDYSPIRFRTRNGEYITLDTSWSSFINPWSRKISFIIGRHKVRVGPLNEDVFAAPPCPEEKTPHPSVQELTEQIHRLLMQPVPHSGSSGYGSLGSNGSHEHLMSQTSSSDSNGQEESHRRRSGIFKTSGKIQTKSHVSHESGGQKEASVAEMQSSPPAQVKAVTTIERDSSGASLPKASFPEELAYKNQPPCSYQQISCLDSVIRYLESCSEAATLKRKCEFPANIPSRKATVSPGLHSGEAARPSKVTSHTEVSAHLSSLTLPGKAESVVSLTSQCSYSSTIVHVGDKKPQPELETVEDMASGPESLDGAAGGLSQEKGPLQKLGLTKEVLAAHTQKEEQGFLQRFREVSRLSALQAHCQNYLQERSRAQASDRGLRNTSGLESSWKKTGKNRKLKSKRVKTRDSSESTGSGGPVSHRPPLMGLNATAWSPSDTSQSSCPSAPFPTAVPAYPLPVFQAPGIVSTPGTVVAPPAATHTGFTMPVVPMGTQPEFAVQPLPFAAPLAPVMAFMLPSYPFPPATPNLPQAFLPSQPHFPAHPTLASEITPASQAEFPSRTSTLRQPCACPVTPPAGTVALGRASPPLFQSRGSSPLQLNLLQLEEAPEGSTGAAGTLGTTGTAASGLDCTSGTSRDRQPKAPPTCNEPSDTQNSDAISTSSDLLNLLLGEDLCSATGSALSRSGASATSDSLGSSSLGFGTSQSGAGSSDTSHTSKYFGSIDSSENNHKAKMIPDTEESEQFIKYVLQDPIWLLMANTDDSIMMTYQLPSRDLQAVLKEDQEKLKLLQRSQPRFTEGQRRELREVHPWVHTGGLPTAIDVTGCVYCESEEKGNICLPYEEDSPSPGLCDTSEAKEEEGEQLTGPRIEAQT

B1: CHRONO minimal repressive domain (MRD), tag form not stated (domain or fragment)
chain: ELETSLNTQGCTTEGDLLFAQKCKELQGFIPPLTDLLNGLKMGRFERGLSSFQQSVAMDRIQRIVGVLQKPQMGERYLGTLLQVEGMLKTWFPQIAAQKSSLGGGKHQLTKHFPSHHSDSAASSPASPMEKMDQTQLGHLALKPK
B1 gave a Kd [1] of 1540 nM, an IC50 [2] of 375 nM and a Kd [2] of 386 nM.

B2: His-CHRONO minimal repressive domain (MRD) (domain or fragment)
chain: ELETSLNTQGCTTEGDLLFAQKCKELQGFIPPLTDLLNGLKMGRFERGLSSFQQSVAMDRIQRIVGVLQKPQMGERYLGTLLQVEGMLKTWFPQIAAQKSSLGGGKHQLTKHFPSHHSDSAASSPASPMEKMDQTQLGHLALKPK
B2 showed a Kd [3] of 369 nM and a stoichiometry N [3] of 1.

B3: CK1δ kinase domain (residues 1-294) (enzyme, human, UniProt P48730 1-294, looked up)
chain: MELRVGNRYRLGRKIGSGSFGDIYLGTDIAAGEEVAIKLECVKTKHPQLHIESKIYKMMQGGVGIPTIRWCGAEGDYNVMVMELLGPSLEDLFNFCSRKFSLKTVLLLADQMISRIEYIHSKNFIHRDVKPDNFLMGLGKKGNLVYIIDFGLAKKYRDARTHQHIPYRENKNLTGTARYASINTHLGIEQSRRDDLESLGYVLMYFNLGSLPWQGLKAATKRQKYERISEKKMSTPIEVLCKGYPSEFATYLNFCRSLRFDDKPDYSYLRQLFRNLFHRQGFSYDYVFDWNMLK
B3: binds [4].
